Assay [1] addresses T1, bio-huCD38 (human (hu), UniProt P28907 43-300, biotinylated (bio-), site not stated). As to the kind of experiment: SPR, antigen immobilized, antibody as analyte 25-1.6 nM; at the instrument's limit. (In general: SPR reads the build-up and loss of mass on a sensor chip optically.)
In assay [2] the target is T1, bio-huCD38. Nature of the assay: SPR, antibody captured on chip, antigen as analyte 200-6.25 nM. As for the experimental part:
(§1) SPR analysis was performed on a Biocore 8K+, using a CFJB0944 CM5 sensor chip for immobilization and a SPR running buffer 1×HBS-EP+pH 7.4 (Cytiva, cat no. BR100669) according to the manufacturer's instructions.
In the first part of this example the antibody was immobilized on the chip and the antigen dissolved in the SPR running buffer flowed over the chip.

The target in assay [3] is T2, CD38 on Daudi cells (UniProt P28907 1-300, limits assumed).
T2 construct: whole, on cells
As to the kind of experiment: titration binding FACS on Daudi cells. On the procedure: (§2) Subsequently the EC50 of antibodies samples was determined by titration binding FACS on Daudi cells (for CD38 binding evaluation), on THP-1 cells (for CD33 binding evaluation), on A-431 cells (for EGFR binding evaluation), on MKN-45 cells (for CEACAMS binding evaluation) and on HEK293T (for CD276 binding evaluation). Jurkat E6-1 or HEK293T cell lines were used as negative control, as applicable.

Assay [4] has as its target T1, bio-huCD38. As to the kind of experiment: SPR, antigen immobilized, antibody as analyte 25-1.6 nM; estimated from ka and the limit kd, indicative. On the procedure: as §1
(§3) In the second part of this example, antigen was immobilized on the chip and antibody dissolved in the SPR running buffer flowed over the chip.

The target of assay [5] is T1, bio-huCD38. As to the kind of experiment: SPR, antigen immobilized, antibody as analyte 25-1.6 nM. On the procedure: as §1, §3
Assay [6] has as its target T1, bio-huCD38. As to the kind of experiment: SPR (Biacore 8K+), immobilized antigen.
Assay [7] has as its target target expressed in cell line for the HER2/CD276 trivalent molecules (HER2 and/or CD276; cell line not named). As to the kind of experiment: titration binding FACS, target cell line not named.
The target of assay [8] is T3, CD276 on HEK293T cells (UniProt Q5ZPR3 29-534, limits assumed).
T3 construct: whole, on cells
T3 sequence (looked up): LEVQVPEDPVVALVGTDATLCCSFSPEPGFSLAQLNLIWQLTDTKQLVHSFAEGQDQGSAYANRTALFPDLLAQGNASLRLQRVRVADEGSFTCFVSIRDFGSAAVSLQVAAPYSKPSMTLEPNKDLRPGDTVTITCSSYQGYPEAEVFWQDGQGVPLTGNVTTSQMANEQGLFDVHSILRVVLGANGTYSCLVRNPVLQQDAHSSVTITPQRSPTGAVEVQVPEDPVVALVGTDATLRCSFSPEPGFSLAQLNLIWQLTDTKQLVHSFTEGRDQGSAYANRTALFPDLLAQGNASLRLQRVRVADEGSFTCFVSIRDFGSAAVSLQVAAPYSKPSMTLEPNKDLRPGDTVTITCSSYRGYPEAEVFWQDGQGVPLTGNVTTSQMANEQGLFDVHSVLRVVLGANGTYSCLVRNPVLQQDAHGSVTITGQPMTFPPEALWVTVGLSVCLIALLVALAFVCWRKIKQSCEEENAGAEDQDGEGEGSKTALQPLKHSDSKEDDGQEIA
Nature of the assay: FACS titration on HEK293T cells (the line used for CD276 binding evaluation), GeoMFI (RL1-H); control cell line Jurkat E6-1. On the procedure:
as §2

Where only a bound is given, the exact number is not on record here.

B1: CD38 (bivalent)-DOTA(Fab)-p53 (bispecific antibody)
light: DVQLQESGGGLVQAGGSLRLSCTGSGRTFRNYPMAWFRQAPGKEREFVAGITWVGASTLYADFAKGRFTISRDNAKNTVYLQMNSLKPEDTAVYSCAAGRGIVAGRIPAEYADWGQGTQVTVSSGGGGSGGGGSGGGGSGGGGGSQAVVIQESALTTPPGETVTLTCGSSTGAVTASNYANWVQEKPDHLFTGLIGGHNNRPPGVPARFSGSLIGDKAALTIAGTQTEDEAIYFCALWYSDHWVIGGGTRLTVLGQPKANPTVTLFPPSSEELQANKATLVCLISDFYPGAVTVAWKADGSPVKAGVETTKPSKQSNNKYAASSYLSLTPEQWKSHRSYSCQVTHEGSTVEKTVAPTECS
heavy: DVQLQESGGGLVQAGGSLRLSCTGSGRTFRNYPMAWFRQAPGKEREFVAGITWVGASTLYADFAKGRFTISRDNAKNTVYLQMNSLKPEDTAVYSCAAGRGIVAGRIPAEYADWGQGTQVTVSSGGGGSGGGGSGGGGSGGGGGSHVKLQESGPGLVQPSQSLSLTCTVSGFSLTDYGVHWVRQSPGKGLEWLGVIWSGGGTAYNTALISRLNIYRDNSKNQVFLEMNSLQAEDTAMYYCARRGSYPYNYFDAWGRGTTVTVSSASTKGPSVFPLAPSSKSTSGGTAALGCLVKDYFPEPVTVSWNSGALTSGVHTFPAVLQSSGLYSLSSVVTVPSSSLGTQTYICNVNHKPSNTKVDKKVEPKSCGGGGSGGGGSKPLDGEYFTLQIRGRERFEMFRELNEALELKDAQAGKEPGGS
notes: Two identical CD38 VHHs, one on each Fab chain; has the p53 tetramerization domain; also called YM00004; molecule 3
For the molecule B1, the figures for the koff in assay [1] and in assay [2] were less than 1e-07 s⁻¹ and 0.00012 s⁻¹, respectively. Further, the equilibrium dissociation constant (Kd) (in general, the free concentration of one partner at which half of the binding sites on the other are occupied at equilibrium, for simple one-to-one binding) in assay [2] was 2.77 nM; in assay [4] it was less than 0.000826 nM. In addition, the kon (as a rule, the second-order rate constant of association) in assay [2] came out at 43200 M⁻¹ s⁻¹; in assay [5], 121000 M⁻¹ s⁻¹. It took 3.45 nM to reach a half-maximal effect in assay [3] (EC50).

B2: CD38-DOTA(fab)-dp53 (bispecific antibody)
light: DVQLQESGGGLVQAGGSLRLSCTGSGRTFRNYPMAWFRQAPGKEREFVAGITWVGASTLYADFAKGRFTISRDNAKNTVYLQMNSLKPEDTAVYSCAAGRGIVAGRIPAEYADWGQGTQVTVSSGGGGSGGGGSGGGGSGGGGGSQAVVIQESALTTPPGETVTLTCGSSTGAVTASNYANWVQEKPDHLFTGLIGGHNNRPPGVPARFSGSLIGDKAALTIAGTQTEDEAIYFCALWYSDHWVIGGGTRLTVLGQPKANPTVTLFPPSSEELQANKATLVCLISDFYPGAVTVAWKADGSPVKAGVETTKPSKQSNNKYAASSYLSLTPEQWKSHRSYSCQVTHEGSTVEKTVAPTECS
heavy: HVKLQESGPGLVQPSQSLSLTCTVSGFSLTDYGVHWVRQSPGKGLEWLGVIWSGGGTAYNTALISRLNIYRDNSKNQVFLEMNSLQAEDTAMYYCARRGSYPYNYFDAWGRGTTVTVSSASTKGPSVFPLAPSSKSTSGGTAALGCLVKDYFPEPVTVSWNSGALTSGVHTFPAVLQSSGLYSLSSVVTVPSSSLGTQTYICNVNHKPSNTKVDKKVEPKSCGGHHHHHH
notes: No tetramerization domain; also called YM00017; molecule 15
For B2, a half-maximal effect in assay [3] (EC50) was put at 1.07 nM. In assay [6], the Kd came to 0.316 nM; the off-rate (koff) – broadly, the rate constant with which the complex falls apart – came to 0.000148 s⁻¹; the kon came out at 470000 M⁻¹ s⁻¹.

B3: CD38(Bivalent)-DOTA(fab)-p53_C-Term (bispecific antibody)
light: QAVVIQESALTTPPGETVTLTCGSSTGAVTASNYANWVQEKPDHLFTGLIGGHNNRPPGVPARFSGSLIGDKAALTIAGTQTEDEAIYFCALWYSDHWVIGGGTRLTVLGQPKANPTVTLFPPSSEELQANKATLVCLISDFYPGAVTVAWKADGSPVKAGVETTKPSKQSNNKYAASSYLSLTPEQWKSHRSYSCQVTHEGSTVEKTVAPTECSGGGGSGGGGSGGGGSGGGGGSDVQLQESGGGLVQAGGSLRLSCTGSGRTFRNYPMAWFRQAPGKEREFVAGITWVGASTLYADFAKGRFTISRDNAKNTVYLQMNSLKPEDTAVYSCAAGRGIVAGRIPAEYADWGQGTQVTVSS
heavy: HVKLQESGPGLVQPSQSLSLTCTVSGFSLTDYGVHWVRQSPGKGLEWLGVIWSGGGTAYNTALISRLNIYRDNSKNQVFLEMNSLQAEDTAMYYCARRGSYPYNYFDAWGRGTTVTVSSASTKGPSVFPLAPSSKSTSGGTAALGCLVKDYFPEPVTVSWNSGALTSGVHTFPAVLQSSGLYSLSSVVTVPSSSLGTQTYICNVNHKPSNTKVDKKVEPKSCGGGGSGGGGSGGGGSGGGGGSDVQLQESGGGLVQAGGSLRLSCTGSGRTFRNYPMAWFRQAPGKEREFVAGITWVGASTLYADFAKGRFTISRDNAKNTVYLQMNSLKPEDTAVYSCAAGRGIVAGRIPAEYADWGQGTQVTVSSGGGGSGGGGSKPLDGEYFTLQIRGRERFEMFRELNEALELKDAQAGKEPGGS
notes: Two identical C-terminal CD38 VHHs; has the p53 tetramerization domain; also called YM00015; molecule 14
On to B3, for which the koff in assay [1] is less than 1e-07 s⁻¹; in assay [2] it was 6.41e-05 s⁻¹. Besides, the equilibrium dissociation constant (Kd) is 1.89 nM in assay [2] and less than 0.000535 nM in assay [4]. The values for the kon in assay [2] and in assay [5] were 33800 M⁻¹ s⁻¹ and 187000 M⁻¹ s⁻¹, respectively. Moreover, in assay [3], the EC50 (in general, the midpoint of the concentration-response curve) is 3.24 nM.

B4: HER2/CD276_23F11-DOTA(humanized fab)-p53 (bispecific antibody)
light: QVQLQESGGGSVQAGGSLKLTCAASGYIFNSCGMGWYRQSPGRERELVSRISGDGDTWHKESVKGRFTISQDNVKKTLYLQMNSLKPEDTAVYFCAVCYNLETYWGQGTQVTVSSGGGSGGGSGGGSGGGGSQAVVTQEPSLTVSPGGTVTLTCGSSTGAVTASNYANWVQQKPGQAPRGLIGGHNNRPPGVPARFSGSLLGGKAALTLLGAQPEDEAEYYCALWYSDHWVIGGGTKLTVLGQPKANPTVTLFPPSSEELQANKATLVCLISDFYPGAVTVAWKADGSPVKAGVETTKPSKQSNNKYAASSYLSLTPEQWKSHRSYSCQVTHEGSTVEKTVAPTECS
heavy: QVQLVESGGGLVQAGGSLRLSCAASGRTFSRQVMGWFRQAPGKERAFVAAISGSGGTTMYAGSVKGRFTISKDNAKNMVYLQMNSLKPEDTAVYYCNTVTPYDSWGQGTQVTVSSGGGGSGGGGSGGGGSGGGGGSHVQLVESGGGLVQPGGSLRLSCAASGFSLTDYGVHWVRQAPGKGLEWLGVIWSGGGTAYNTALISRFTISRDNSKNTLYLQMNSLRAEDTAVYYCARRGSYPYNYFDAWGQGTLVTVSSASTKGPSVFPLAPSSKSTSGGTAALGCLVKDYFPEPVTVSWNSGALTSGVHTFPAVLQSSGLYSLSSVVTVPSSSLGTQTYICNVNHKPSNTKVDKKVEPKSCGGGGSGGGGSKPLDGEYFTLQIRGRERFEMFRELNEALELKDAQAGKEPGGSGGAP
notes: Three specificities (HER2 VHH, CD276 VHH, humanized DOTA Fab); also called YM00053; molecule 17
In assay [7], B4 returned an EC50 of 12.4 nM. Moreover, the binding result in assay [8] was “binds”.

B5: HER2/CD276_23A04-DOTA(humanized fab)-p53 (bispecific antibody)
light: QVQLQESGGGSVQAGGSLKLTCAASGYIFNSCGMGWYRQSPGRERELVSRISGDGDTWHKESVKGRFTISQDNVKKTLYLQMNSLKPEDTAVYFCAVCYNLETYWGQGTQVTVSSGGGSGGGSGGGSGGGGSQAVVTQEPSLTVSPGGTVTLTCGSSTGAVTASNYANWVQQKPGQAPRGLIGGHNNRPPGVPARFSGSLLGGKAALTLLGAQPEDEAEYYCALWYSDHWVIGGGTKLTVLGQPKANPTVTLFPPSSEELQANKATLVCLISDFYPGAVTVAWKADGSPVKAGVETTKPSKQSNNKYAASSYLSLTPEQWKSHRSYSCQVTHEGSTVEKTVAPTECS
heavy: QVQLVESGGGLVQSGDSLRLSCGWSGRTFSGYAMGWFRKAPGKDYEFVAAISVSETKTRYADSIRGRFTISRDNAKNTVYLQMNSLKPEDTAVYYCAASRSGVVGGREPTRYNYWGQGTQVTVSSGGGGSGGGGSGGGGSGGGGGSHVQLVESGGGLVQPGGSLRLSCAASGFSLTDYGVHWVRQAPGKGLEWLGVIWSGGGTAYNTALISRFTISRDNSKNTLYLQMNSLRAEDTAVYYCARRGSYPYNYFDAWGQGTLVTVSSASTKGPSVFPLAPSSKSTSGGTAALGCLVKDYFPEPVTVSWNSGALTSGVHTFPAVLQSSGLYSLSSVVTVPSSSLGTQTYICNVNHKPSNTKVDKKVEPKSCGGGGSGGGGSKPLDGEYFTLQIRGRERFEMFRELNEALELKDAQAGKEPGGSGGAP
notes: Three specificities (HER2 VHH, CD276 VHH, humanized DOTA Fab); also called YM00052; molecule 18
B5 registered an EC50 in assay [7] of 90.2 nM. The binding result in assay [8] is on record as “binds”.

Values taken from patent publication US20260166185A1 (Y MABS THERAPEUTICS, published 2026).
